In patent US6645501B2, “Anti-pathogen system and methods of use thereof” (Washington University, priority 1997, dated 2003):
“Also recorded” adds a separate entry of the source.

How the values were obtained:
[1] = system: Jurkat T-cells infected by HIV; experiment: Cleavage of transduced p16 fusion proteins in HIV-infected Jurkat T-cells, Western/immunoblot with anti-p16 antibody; format: cell-based; conditions: after 4, 8 and 12 hours
Protocol: Purified p16 fusion proteins were individually transduced into Jurkat T-cells infected by HIV. Methods for infecting the Jurkat T-cells with HIV and transducing fusion proteins are described in examples, which follow. After 4, 8 and 12 hours, the cells are analyzed for cleavage of the fusion protein by Western/immunoblot analysis using a commercially available anti-P16 antibody (Santa Cruz). As a control, the p16 cDNA was fused to the pTAT vector described in Example 1 to produce the vector shown in FIG. 3D (no HIV protease cleavage site). That vector encoded a p16 fusion protein fused to TAT that was not cleaved in the infected cells.

[2] = molecular target: T1, HIV Protease (Human immunodeficiency virus type 1 group M subtype B, UniProt P04585); experiment: In vivo substrate cleavage by co-transduced TAT-HIV Pr in Jurkat T cells, immunoblot; format: cell-based; conditions: 100 nM substrate, 50 nM TAT-HIV Pr, Jurkat T cells, immunoblot
T1 construct: PCR cloning the HIV Protease gene from HXB2R HIV strain; 6xHis (from the pTAT vector) (N); made in house; the purified protein was added to Jurkat T cells
Protocol: To assay for in vivo cleavage, p 16(−) Jurkat T cells were transduced with 100 nM TAT-Ap16 or control TAT-p16 protein (no HIV cleavage site) alone or in combination with 50 nM TATHIV Pr fusion protein for 5 hr and analyzed by anti-p16 immunoblot for in vivo cleavage at the HIV A proteolytic cleavage site (FIG. 10A). […] Size analysis of the cleaved TAT-A-p 16 protein was consistent with retention of the residual HIV half site present on the N′ terminus of p 16 (FIG. 10A, see lane 4 vs. 5).
Further, the TAT-Casp3MUT protein was transduced in combination with TAT-HIV Pr protein into cells (FIG. 10B).
The in vivo processing in co-transduced cells shown in FIGS. 10A and 10B is explained in more detail as follows. FIG. 10A. Cultures of p16(−) Jurkat T cells were transduced with TAT-p 16 or TAT-A-p 16 substrate proteins in combination with TATHIV Pr proteins for 5 hr and subjected to anti-p 16 immunoblot analysis. […] WCE, HepG2 whole cell lysate containing wild type endogenous p16; A-p16, cleaved TAT-A-16 product retaining the HIV half site on p16. FIG. 10B. Cultures of Jurkat T cells were transduced with TATCasp3MUT protein (TAT-“D” site-p 17 domain-“A” site-p12 domain) alone or in combination with TAT-HIV Pr (Pr) protein as indicated and immunoblotted with anti-Caspase-3 antibodies specific for the p17 domain. TAT-D-p17-A, cleaved product of TAT-Casp3 containing the N′ terminal HIV A half site.
(§1) 1. […] See Lissy, N. A., et al. (supra). […] See Ezhevsky, S. A., et al. (supra). […] See Xiang, J., et al., (supra). […] See Xiang, J., et al., (supra). […] See Ezhevsky, S. A., et al. (supra).

[3] = system: Jurkat T cells; experiment: FACS and confocal analysis of FITC-labeled TAT fusion proteins added to Jurkat T cells; format: cell-based; conditions: for cells transduced: FITC-labeled protein added to media of Jurkat T cells
Protocol: To test the ability of TAT-Casp3 proteins to transduce into cells, TAT-Casp3 proteins were conjugated to fluorescein (FITC), then added directly to the media of Jurkat T cells and analyzed by Flow Cytometry (FACS) (FIGS. 9B-C). Both TAT-Casp3WT and TAT-Casp3MUT proteins rancidly transduced into ˜100% of cells, achieving maximum intracellular concentration in less than 20 min. In addition, based on the narrow peak width before and after addition of FITC labeled proteins, individual cells within the population contain near identical intracellular concentrations of TAT-Casp3-FITC protein. […] Thus, TAT-Casp3 proteins readily transduce into 100% of all cells inca rapid and concentration-dependent fashion.
The generation and transduction of TAT fusion proteins shown in FIGS. 9A-E are explained in more detail as follows: FIG. 9A. Diagram depicting HIV cleavage site sequences and domains of TAT fusion proteins. FIGS. 9B-D. FACS kinetic analysis of fluorescein (FITC) labeled TAT-Casp3WT, TAT-Casp3MUT and TAT-HIV Pr proteins added to cells at 0, 20 and 30 min. FIG. 9E. FACS dose analysis of 3, 6, and 12 nM TAT-Casp3WT-FITC protein added to cells at I hr post-addition. Note rapid, concentration-dependent transduction of all FITC labeled protein into ˜100% of cells and near identical intracellular concentration within the population as measured by FACS peak width of control vs. transduced cells.
as §1

[4] = system: Jurkat T cells infected with the NLHX strain of HIV-I; experiment: Cytotoxicity of TAT-Casp3 on HIV infected Jurkat cultures, exclusionary dye viability analysis; format: cell-based
Description: To make this determination, Jurkat T cells were infected for 7-14 days with the NLHX strain of HIV-I and examined microscopically for HIV cytopathic effects. See Westervelt, P., et al., Identification of a determinant within the HIV-1 surface envelope glycoprotein critical for productive infection of cultured primary monocytes. Proc. Natl. Acad. Sci USA 88: 3097 (1991). At the start of each transduction experiment approximately 50% of the culture was HIV positive. HIV infected cultures were transduced for 16 hr with 100 nM TAT-Casp3WT or TATCasp3MUT protein and then assayed for cell viability (FIG. 13). […] In addition, we detected both the appearance of cells containing <2N DNA content and cells with condensed nuclei in TAT-Casp3 treated cells.
To determine if TAT-Casp3WT induced apoptosis was dependent on active HIV Protease in the infected cultures, HIV infected cultures were pretreated with 1 μg/ml Ritonavir prior to transduction with 100 nM TAT-Casp3WT protein (FIG. 5). […] In addition, the observed increased survival of Ritonavir treated cells is consistent with increased longevity of protease inhibitor treated HIV infected cells. See Coffin, J. M., et al. (supra).
The specific killing of HIV infected cells shown in FIG. 5 is explained in more detail as follows. Jurkat T cells were infected for 7-14 days with HIV strain NLHX, then transduced with TAT-Casp3WT (WT) or TAT-Casp3MUT (MUT) proteins for 16 hr and assayed for cell viability. […] Ctrl, control addition of PBS to cultures; abscissa, % viability of HIV positive cells in the population at start of transduction; error bars represent SD.
as §1

[5] = system: Jurkat T cells; experiment: Cytotoxicity of TAT-Casp3 on uninfected Jurkat T cells, viability by Trypan Blue exclusion; conditions: co-transduced with TAT-HIV Pr
Protocol: In addition, the ability of TAT-Casp3 protein to induce apoptosis in cells co-transduced with TAT-HIV Pr protein was tested. Jurkat T cells were treated with 100 nM TAT-Casp3WT or TATCasp3MUT proteins alone or in combination with 50 nM TAT-HIV Pr protein and assayed for cell viability 16 hr post-treatment (FIG. 11A). […] See Salvensen, G. S., et al., Henkart, P. A., Cohen, G. M., Woo, M., et al., Enari, M. et al., Liu, X., et al. (supra).
FIG. 11A Cultures of Jurkat T cells were transduced with combinations of TAT-Casp3WT (WT), TAT-Casp3MUT (MUT) and TAT-HIV Protease (Pr) proteins for 16 hr and analyzed for cell viability. […] FIG. 11B Cultures of Jurkat T cells were co-transduced with TAT-Casp3WT (WT), TAT-Casp3MUT (MUT) proteins in combination with TAT-HIV Pr (Pr) protein and analyzed for kinetics of cell viability as indicated.
1. Cell culture-p16(−) Jurkat T cells (ATCC) were grown as described. See Lissy, N. A., et al. (supra). For in vivo substrate cleavage, 1×10^6 cells were transduced with 100 nM TAT-p16, TAT-A-p16, TAT-Casp3MUT and/or 50 nM TAT-HIV Pr proteins for 1, 5 or 8 hr as indicated and analyzed by anti-p16 (Santa Cruz) or anti-Casp3 (Pharmingen) immunoblot analysis. See Ezhevsky, S. A., et al. (supra). For cytotoxicity of TAT-Casp3 on uninfected cells, 1×10^6 cells were transduced with 100 nM TAT-Casp3WT, TAT-Casp3MUT and/or 50 nM TAT-HIV Pr proteins for 16 hr and assayed for viability by Trypan Blue exclusion and/or genomic DNA damage by TUNEL assay (Trevigen). Number of TUNEL positive cells reported as per high-powered microscopic field with four fields per experiment averaged. TAT-Casp3 activity was measured by incubation of 20 μg of whole cell lysate with 50 μM DEVD-AFC and fluorescent AFC formation measured on a FL500 microplate fluorescence reader (Bio-Tek) as described. See Xiang, J., et al., (supra). Cells were preincubated with 1 μg/ml Ritonavir (Abbott Labs) for 1 hr prior to transduction. For cytotoxicity of TAT-Casp3 on infected cells, Jurkat cultures were infected with 100 ng p24 Ag equivalent NLHX HIV-I strain for 7-14 days, assayed microscopically for cytopathic effects, then replated at 1×10^6/ml and transduced with 100 nM of TAT-Casp3WT or TAT-Casp3MUT proteins for 16 hr followed by exclusionary dye viability analysis. Infected cells were pretreated with 1 μg/ml Ritonavir for 24 hr prior to transduction with TAT-Casp3WT protein. See Xiang, J., et al., (supra). For Flow Cytometry (FACS) analysis, fluorescein (FITC) conjugated TAT fusion proteins were added to Jurkat T cell culture media and 1×10^4 cells were analyzed by FACS as described. See Ezhevsky, S. A., et al. (supra).

[6] = system: Jurkat T cells; experiment: TUNEL assay for degraded genomic DNA in transduced Jurkat T cells; format: cell-based
Protocol: (§2) Additionally, transduced cultures were tested for degraded genomic DNA by TUNEL assay. See Coates, P. J., Molecular methods for the identification of apoptosis in tissues. J. Histotechnology 17: 261 (1994). […] Activation of TAT-Casp3 was also assayed by its ability to cleave an artificial Caspase-3 substrate. […] See Xiang, J., et al., Bax-induced cell death may not require interleukin 1B-converting enzyme-like proteases. Proc. Natl. Acad. Sci. USA 93: 14550 (1996).
(§3) The HIV Protease activates TAT-Casp3WT protein shown in FIGS. 12A-B are explained in more detail as follows. FIG. 12A. […] Abscissa: TUNEL positive cells per high-powered microscopic field; Ctrl, control addition of PBS to cultures; error bars represent SD. FIG. 12B. […] Ctrl, control PBS addition; ocFAS crosslinking, positive control.
as §1

[7] = system: caspase-3 activity (DEVD-AFC cleavage); experiment: Caspase-3 enzyme assay, cleavage of DEVD-AFC by whole cell lysate of transduced Jurkat T cells; format: cell-based; conditions: 6 hr
Protocol: as §2, §3, §1

B1: TAT-p16: control TAT-p16 fusion protein with no HIV cleavage site (protein)
chain: GRKKRRQRRRGMEPAAGSSMEPSADWLATAAARGRVEEVRALLEAGALPNAPNSYGRRPIQVMMMGSARVAELLLLHGAEPNCADPATLTRPVHDAAREGFLDTLVVLHRAGARLDVRDAWGRLPVDLAEELGHRDVARYLRAAAGGTRGSNHARIDAAEGPSDIPD
modifications: left off: small tags and cut ends
notes: control TAT-p16 fusion protein with no HIV cleavage site
- cleavage of the fusion protein in HIV-infected cells [1]: not cleaved
- cleavage at the HIV cleavage site when co-transduced with TAT-HIV Pr [2]: not cleaved
- cells transduced [3]: 100%

B2: TAT-Casp3WT: TAT-D site-p17-A site-p12 modified Caspase-3 fusion protein, Pro domain replaced by TAT transduction domain (protein)
chain: GRKKRRQRRRGYPYDVPDYACTERQANFLGKIWPGISLDNSYKMDYPEMGLCIIINNKNFHKSTGMTSRSGTDVDAANLRETFRNLKYEVRNKNDLTREEIVELMRDVSKEDHSKRSSFVCVLLSHGEEGIIFGTNGPVDLKKITNFFRGDRCRSLTGKPKLFIIQACRGTELDCGIETSQVSQNYPIVQNLQGVDDDMACHKIPVEADFLYAYSTAPGYYSWRNSKDGSWFIQSLCAMLKQYADKLEFMHILTRVNRKVATEFESFSFDATFHAKKQIPCIVSMLTKELYFYH
modifications: left off: small tags and cut ends
notes: TAT-D site-p17-A site-p12 modified Caspase-3 fusion protein, Pro domain replaced by TAT transduction domain
- effect on viability of HIV positive cells ([4]; 100 nM, 16 hr, cultures approximately 50% HIV positive): dramatic loss of HIV positive cells; also recorded: efficiently kills a large percentage of HIV positive cells
- appearance of cells containing <2N DNA content and cells with condensed nuclei ([4]; HIV infected cultures): detected
- appearance of cells containing <2N DNA content [5]: detected
- earliest detection of cellular death post-transduction [5]: 4 h
- kinetic analysis of cell death (shape of curve) [5]: linear killing curve
- dose analysis of protein transduction ([3]; 3, 6 and 12 nM, 1 hr post-addition, at equilibrium): concentration-dependency
- intracellular localisation by confocal microscopy ([3]; FITC-labeled protein): both cytoplasmic and nuclear compartments
- cells transduced [3]: ~100%
- TUNEL positive cells, protein transduced alone ([6]; 100 nM TAT-Casp3 or 50 nM TAT-HIV Pr): only background levels; also recorded: remained at background levels
- TUNEL positive cells, co-transduced with TAT-HIV Pr ([6]; 100 nM plus 50 nM TAT-HIV Pr): marked increase; also recorded: specific TUNEL positive cells
- caspase activity, co-transduced with TAT-HIV Pr ([7]; 100 nM plus 50 nM TAT-HIV Pr): marked increase in caspase activity that was greater than αFAS treatment; also recorded: specific activation of caspase-3 activity
- caspase activity, protein transduced alone [7]: only background levels
